Assay results reported in paper PMC7015813 (Nature structural & molecular biology, 2020).
Substitutions are numbered along the chain they refer to. Numbers in names are those of the source.

B1: WT core mouse RAG1 (aa 384-1008), P15919 384-1008 (enzyme)
chain: VHINKGGRPRQHLLSLTRRAQKHRLRELKIQVKEFADKEEGGDVKAVCLTLFLLALRARNEHRQADELEAIMQGRGSGLQPAVCLAIRVNTFLSCSQYHKMYRTVKAITGRQIFQPLHALRNAEKVLLPGYHPFEWQPPLKNVSSRTDVGIIDGLSGLASSVDEYPVDTIAKRFRYDSALVSALMDMEEDILEGMRSQDLDDYLNGPFTVVVKESCDGMGDVSEKHGSGPAVPEKAVRFSFTVMRITIEHGSQNVKVFEEPKPNSELCCKPLCLMLADESDHETLTAILSPLIAEREAMKSSELTLEMGGIPRTFKFIFRGTGYDEKLVREVEGLEASGSVYICTLCDTTRLEASQNLVFHSITRSHAENLQRYEVWRSNPYHESVEELRDRVKGVSAKPFIETVPSIDALHCDIGNAAEFYKIFQLEIGEVYKHPNASKEERKRWQATLDKHLRKRMNLKPIMRMNGNFARKLMTQETVDAVCELIPSEERHEALRELMDLYLKMKPVWRSSCPAKECPESLCQYSFNSQRFAELLSTKFKYRYEGKITNYFHKTLAHVPEIIERDGSIGAWASEGNESGNKLFRRFRKMNARQSKCYEMEDVLKHHWLYTSKYLQKFMNAHNA
B2: WT core mouse RAG2 (aa 1-359) (domain or fragment, UniProt P21784 1-359, looked up)
chain: MSLQMVTVGHNIALIQPGFSLMNFDGQVFFFGQKGWPKRSCPTGVFHFDIKQNHLKLKPAIFSKDSCYLPPLRYPATCSYKGSIDSDKHQYIIHGGKTPNNELSDKIYIMSVACKNNKKVTFRCTEKDLVGDVPEPRYGHSIDVVYSRGKSMGVLFGGRSYMPSTQRTTEKWNSVADCLPHVFLIDFEFGCATSYILPELQDGLSFHVSIARNDTVYILGGHSLASNIRPANLYRIRVDLPLGTPAVNCTVLPGGISVSSAILTQTNNDEFVIVGGYQLENQKRMVCSLVSLGDNTIEISEMETPDWTSDIKHSKIWFGSNMGNGTIFLGIPGDNKQAMSEAFYFYTLRCSEEDLSEDQ
B3: mouse RAG2 (aa 1-520), degradation resistant T490A mutant (natural protein, UniProt P21784 1-520, looked up)
chain: MSLQMVTVGHNIALIQPGFSLMNFDGQVFFFGQKGWPKRSCPTGVFHFDIKQNHLKLKPAIFSKDSCYLPPLRYPATCSYKGSIDSDKHQYIIHGGKTPNNELSDKIYIMSVACKNNKKVTFRCTEKDLVGDVPEPRYGHSIDVVYSRGKSMGVLFGGRSYMPSTQRTTEKWNSVADCLPHVFLIDFEFGCATSYILPELQDGLSFHVSIARNDTVYILGGHSLASNIRPANLYRIRVDLPLGTPAVNCTVLPGGISVSSAILTQTNNDEFVIVGGYQLENQKRMVCSLVSLGDNTIEISEMETPDWTSDIKHSKIWFGSNMGNGTIFLGIPGDNKQAMSEAFYFYTLRCSEEDLSEDQKIVSNSQTSTEDPGDSTPFEDSEEFCFSAEATSFDGDDEFDTYNEDDEDDESVTGYWITCCPTCDVDINTWVPFYSTELNKPAMIYCSHGDGHWVHAQCMDLEERTLIHLSEGSNKYYCNEHVQIARALQAPKRNPPLQKPPMKSLHKKGSGKVLTPAKKS
B4: mouse RAG1 (aa 265-1040), catalytically inactive E962Q mutant (enzyme, UniProt P15919 265-1040, looked up)
chain: NCSKIHLSTKLLAVDFPAHFVKSISCQICEHILADPVETSCKHLFCRICILRCLKVMGSYCPSCRYPCFPTDLESPVKSFLNILNSLMVKCPAQDCNEEVSLEKYNHHVSSHKESKETLVHINKGGRPRQHLLSLTRRAQKHRLRELKIQVKEFADKEEGGDVKAVCLTLFLLALRARNEHRQADELEAIMQGRGSGLQPAVCLAIRVNTFLSCSQYHKMYRTVKAITGRQIFQPLHALRNAEKVLLPGYHPFEWQPPLKNVSSRTDVGIIDGLSGLASSVDEYPVDTIAKRFRYDSALVSALMDMEEDILEGMRSQDLDDYLNGPFTVVVKESCDGMGDVSEKHGSGPAVPEKAVRFSFTVMRITIEHGSQNVKVFEEPKPNSELCCKPLCLMLADESDHETLTAILSPLIAEREAMKSSELTLEMGGIPRTFKFIFRGTGYDEKLVREVEGLEASGSVYICTLCDTTRLEASQNLVFHSITRSHAENLQRYEVWRSNPYHESVEELRDRVKGVSAKPFIETVPSIDALHCDIGNAAEFYKIFQLEIGEVYKHPNASKEERKRWQATLDKHLRKRMNLKPIMRMNGNFARKLMTQETVDAVCELIPSEERHEALRELMDLYLKMKPVWRSSCPAKECPESLCQYSFNSQRFAELLSTKFKYRYEGKITNYFHKTLAHVPEIIERDGSIGAWASEGNQSGNKLFRRFRKMNARQSKCYEMEDVLKHHWLYTSKYLQKFMNAHNALKSSGFTMNSKETLGDPLGIEDSLESQDSMEF
B5: mouse RAG1 (aa 265-1040), wild type (enzyme, UniProt P15919 265-1040, looked up)
chain: B4 chain with Q698E

Legend:
[1] = target: T1, WT core mouse RAG1 (aa 384-1008) (mouse), P15919; assay: crystal structure; settings: remark: other sources report otherwise
T1 chain: B1 chain

[2] = target: T2, WT core mouse RAG1 (aa 384-1008) (mouse, UniProt P15919 384-1008); assay: crystal structure
T2 sequence (looked up): B1 chain

[3] = target: B4; assay: cryo-EM structure
cryo-EM structure = target: the molecule itself; assay: cryo-EM structure

Binder: B1
- stoichiometry N [1]: 2

Binder: B2
- binding result [2]: binds

Binder: B3
- binding result [3]: binds

Binder: B4
- binding result (cryo-EM structure): binds

Binder: B5
- binding result (cryo-EM structure): binds
